Results reported in the Human Domainome abundance scans (Beltran et al. 2025).
± gives the uncertainty stated by the source.

B1: SAM and SH3 domain-containing protein 1, residues 630 to 700; numbered along this chain, O94885 (parent)
chain: GRPPQPKSVEDLLDRINLKEHMPTFLFNGYEDLDTFKLLEEEDLDELNIRDPEHRAVLLTAVELLQEYDSN

Variants of: B1
Assay: abundance fitness (aPCA) (normalised: wild type 0, dead -1); higher = more abundant; growth selection in yeast, the domain comes from the species named
Settings: Homo sapiens

Variant	abundance fitness
GRPPQPKSVEDLLDRINCKEHMPTFLFNGYEDLDTFKLLEEEDLDELNIRDPEHRAVLLTAVELLQEYDSN [L18C]	-0.523 ± 0.066
GRPPQPKSVEDLLDRINYKEHMPTFLFNGYEDLDTFKLLEEEDLDELNIRDPEHRAVLLTAVELLQEYDSN [L18Y]	-0.863 ± 0.089
GRPPQPKSVEDLLDRINQKEHMPTFLFNGYEDLDTFKLLEEEDLDELNIRDPEHRAVLLTAVELLQEYDSN [L18Q]	-0.652 ± 0.074
GRPPQPKSVEDLLDRINPKEHMPTFLFNGYEDLDTFKLLEEEDLDELNIRDPEHRAVLLTAVELLQEYDSN [L18P]	-0.996 ± 0.085
GRPPQPKSVEDLLDRINIKEHMPTFLFNGYEDLDTFKLLEEEDLDELNIRDPEHRAVLLTAVELLQEYDSN [L18I]	-0.716 ± 0.077
GRPPQPKSVEDLLDRINKKEHMPTFLFNGYEDLDTFKLLEEEDLDELNIRDPEHRAVLLTAVELLQEYDSN [L18K]	-0.77 ± 0.077
GRPPQPKSVEDLLDRINGKEHMPTFLFNGYEDLDTFKLLEEEDLDELNIRDPEHRAVLLTAVELLQEYDSN [L18G]	-0.89 ± 0.064
GRPPQPKSVEDLLDRINMKEHMPTFLFNGYEDLDTFKLLEEEDLDELNIRDPEHRAVLLTAVELLQEYDSN [L18M]	0.158 ± 0.044
GRPPQPKSVEDLLDRINVKEHMPTFLFNGYEDLDTFKLLEEEDLDELNIRDPEHRAVLLTAVELLQEYDSN [L18V]	-0.742 ± 0.052
GRPPQPKSVEDLLDRINHKEHMPTFLFNGYEDLDTFKLLEEEDLDELNIRDPEHRAVLLTAVELLQEYDSN [L18H]	-0.714 ± 0.076
GRPPQPKSVEDLLDRINWKEHMPTFLFNGYEDLDTFKLLEEEDLDELNIRDPEHRAVLLTAVELLQEYDSN [L18W]	-0.853 ± 0.089
GRPPQPKSVEDLLDRINEKEHMPTFLFNGYEDLDTFKLLEEEDLDELNIRDPEHRAVLLTAVELLQEYDSN [L18E]	-0.797 ± 0.092
GRPPQPKSVEDLLDRINNKEHMPTFLFNGYEDLDTFKLLEEEDLDELNIRDPEHRAVLLTAVELLQEYDSN [L18N]	-0.777 ± 0.081
GRPPQPKSVEDLLDRINTKEHMPTFLFNGYEDLDTFKLLEEEDLDELNIRDPEHRAVLLTAVELLQEYDSN [L18T]	-0.73 ± 0.06
GRPPQPKSVEDLLDRINAKEHMPTFLFNGYEDLDTFKLLEEEDLDELNIRDPEHRAVLLTAVELLQEYDSN [L18A]	-0.804 ± 0.064
GRPPQPKSVEDLLDRINRKEHMPTFLFNGYEDLDTFKLLEEEDLDELNIRDPEHRAVLLTAVELLQEYDSN [L18R]	-1.02 ± 0.066
GRPPQPKSVEDLLDPINLKEHMPTFLFNGYEDLDTFKLLEEEDLDELNIRDPEHRAVLLTAVELLQEYDSN [R15P]	-0.828 ± 0.072
GRPPQPKSVEDLLDWINLKEHMPTFLFNGYEDLDTFKLLEEEDLDELNIRDPEHRAVLLTAVELLQEYDSN [R15W]	-0.411 ± 0.071
GRPPQPKSVEDLLDQINLKEHMPTFLFNGYEDLDTFKLLEEEDLDELNIRDPEHRAVLLTAVELLQEYDSN [R15Q]	-0.017 ± 0.045
GRPPQPKSVEDLLDMINLKEHMPTFLFNGYEDLDTFKLLEEEDLDELNIRDPEHRAVLLTAVELLQEYDSN [R15M]	0.142 ± 0.042
GRPPQPKSVEDLLDTINLKEHMPTFLFNGYEDLDTFKLLEEEDLDELNIRDPEHRAVLLTAVELLQEYDSN [R15T]	-0.164 ± 0.04
GRPPQPKSVEDLLDNINLKEHMPTFLFNGYEDLDTFKLLEEEDLDELNIRDPEHRAVLLTAVELLQEYDSN [R15N]	-0.075 ± 0.046
GRPPQPKSVEDLLDSINLKEHMPTFLFNGYEDLDTFKLLEEEDLDELNIRDPEHRAVLLTAVELLQEYDSN [R15S]	0.116 ± 0.033
GRPPQPKSVEDLLDVINLKEHMPTFLFNGYEDLDTFKLLEEEDLDELNIRDPEHRAVLLTAVELLQEYDSN [R15V]	-0.381 ± 0.046
GRPPQPKSVEDLLDYINLKEHMPTFLFNGYEDLDTFKLLEEEDLDELNIRDPEHRAVLLTAVELLQEYDSN [R15Y]	-0.3 ± 0.053
GRPPQPKSVEDLLDRQNLKEHMPTFLFNGYEDLDTFKLLEEEDLDELNIRDPEHRAVLLTAVELLQEYDSN [I16Q]	-0.682 ± 0.078

Variant	abundance fitness
GRPPQPKSVEDLLDRGNLKEHMPTFLFNGYEDLDTFKLLEEEDLDELNIRDPEHRAVLLTAVELLQEYDSN [I16G]	-0.674 ± 0.085
GRPPQPKSVEDLLDRLNLKEHMPTFLFNGYEDLDTFKLLEEEDLDELNIRDPEHRAVLLTAVELLQEYDSN [I16L]	0.128 ± 0.038
GRPPQPKSVEDLLDRENLKEHMPTFLFNGYEDLDTFKLLEEEDLDELNIRDPEHRAVLLTAVELLQEYDSN [I16E]	-0.595 ± 0.1
GRPPQPKSVEDLLDRNNLKEHMPTFLFNGYEDLDTFKLLEEEDLDELNIRDPEHRAVLLTAVELLQEYDSN [I16N]	-0.326 ± 0.067
GRPPQPKSVEDLLDRKNLKEHMPTFLFNGYEDLDTFKLLEEEDLDELNIRDPEHRAVLLTAVELLQEYDSN [I16K]	-0.735 ± 0.097
GRPPQPKSVEDLLDRWNLKEHMPTFLFNGYEDLDTFKLLEEEDLDELNIRDPEHRAVLLTAVELLQEYDSN [I16W]	-0.611 ± 0.088
GRPPQPKSVEDLLDRVNLKEHMPTFLFNGYEDLDTFKLLEEEDLDELNIRDPEHRAVLLTAVELLQEYDSN [I16V]	-0.199 ± 0.052
GRPPQPKSVEDLLDRYNLKEHMPTFLFNGYEDLDTFKLLEEEDLDELNIRDPEHRAVLLTAVELLQEYDSN [I16Y]	-0.009 ± 0.058
GRPPQPKSVEDLLDRCNLKEHMPTFLFNGYEDLDTFKLLEEEDLDELNIRDPEHRAVLLTAVELLQEYDSN [I16C]	-0.067 ± 0.063
GRPPQPKSVEDLLDRANLKEHMPTFLFNGYEDLDTFKLLEEEDLDELNIRDPEHRAVLLTAVELLQEYDSN [I16A]	-0.424 ± 0.062
GRPPQPKSVEDLLDRPNLKEHMPTFLFNGYEDLDTFKLLEEEDLDELNIRDPEHRAVLLTAVELLQEYDSN [I16P]	-0.994 ± 0.099
GRPPQPKSVEDLLDRFNLKEHMPTFLFNGYEDLDTFKLLEEEDLDELNIRDPEHRAVLLTAVELLQEYDSN [I16F]	-0.266 ± 0.064
GRPPQPKSVEDLLDRMNLKEHMPTFLFNGYEDLDTFKLLEEEDLDELNIRDPEHRAVLLTAVELLQEYDSN [I16M]	-0.325 ± 0.062
GRPPQPKSVEDLLDRDNLKEHMPTFLFNGYEDLDTFKLLEEEDLDELNIRDPEHRAVLLTAVELLQEYDSN [I16D]	-0.703 ± 0.15
GRPPQPKSVEDLLDRTNLKEHMPTFLFNGYEDLDTFKLLEEEDLDELNIRDPEHRAVLLTAVELLQEYDSN [I16T]	-0.589 ± 0.076
GRPPQPKSVEDLLDRHNLKEHMPTFLFNGYEDLDTFKLLEEEDLDELNIRDPEHRAVLLTAVELLQEYDSN [I16H]	-0.278 ± 0.069
GRPPQPKSVEDLLDRINLLEHMPTFLFNGYEDLDTFKLLEEEDLDELNIRDPEHRAVLLTAVELLQEYDSN [K19L]	0.127 ± 0.031
GRPPQPKSVEDLLDRINLAEHMPTFLFNGYEDLDTFKLLEEEDLDELNIRDPEHRAVLLTAVELLQEYDSN [K19A]	-0.055 ± 0.039
GRPPQPKSVEDLLDRINLHEHMPTFLFNGYEDLDTFKLLEEEDLDELNIRDPEHRAVLLTAVELLQEYDSN [K19H]	-0.262 ± 0.05
GRPPQPKSVEDLLDRINLQEHMPTFLFNGYEDLDTFKLLEEEDLDELNIRDPEHRAVLLTAVELLQEYDSN [K19Q]	0.002 ± 0.044
GRPPQPKSVEDLLDRINLIEHMPTFLFNGYEDLDTFKLLEEEDLDELNIRDPEHRAVLLTAVELLQEYDSN [K19I]	-0.073 ± 0.042
GRPPQPKSVEDLLDRINLPEHMPTFLFNGYEDLDTFKLLEEEDLDELNIRDPEHRAVLLTAVELLQEYDSN [K19P]	-0.279 ± 0.043
GRPPQPKSVEDLLDRINLFEHMPTFLFNGYEDLDTFKLLEEEDLDELNIRDPEHRAVLLTAVELLQEYDSN [K19F]	-0.654 ± 0.061
GRPPQPKSVEDLLDRINLGEHMPTFLFNGYEDLDTFKLLEEEDLDELNIRDPEHRAVLLTAVELLQEYDSN [K19G]	-0.236 ± 0.051
GRPPQPKSVEDLLDRINLSEHMPTFLFNGYEDLDTFKLLEEEDLDELNIRDPEHRAVLLTAVELLQEYDSN [K19S]	0.085 ± 0.033
GRPPQPKSVEDLLDRINLMEHMPTFLFNGYEDLDTFKLLEEEDLDELNIRDPEHRAVLLTAVELLQEYDSN [K19M]	-0.058 ± 0.043

Variant	abundance fitness
GRPPQPKSVEDLLDRINLCEHMPTFLFNGYEDLDTFKLLEEEDLDELNIRDPEHRAVLLTAVELLQEYDSN [K19C]	-0.419 ± 0.056
GRPPQPKSVEDLLDRINLNEHMPTFLFNGYEDLDTFKLLEEEDLDELNIRDPEHRAVLLTAVELLQEYDSN [K19N]	-0.211 ± 0.047
GRPPQPKSVEDLLDRINLTEHMPTFLFNGYEDLDTFKLLEEEDLDELNIRDPEHRAVLLTAVELLQEYDSN [K19T]	0.042 ± 0.036
GRPPQPKSVEDLLDRINLVEHMPTFLFNGYEDLDTFKLLEEEDLDELNIRDPEHRAVLLTAVELLQEYDSN [K19V]	-0.293 ± 0.042
GRPPQPKSVEDLLDRINLEEHMPTFLFNGYEDLDTFKLLEEEDLDELNIRDPEHRAVLLTAVELLQEYDSN [K19E]	-0.434 ± 0.073
GRPPQPKSVEDLLDRINLDEHMPTFLFNGYEDLDTFKLLEEEDLDELNIRDPEHRAVLLTAVELLQEYDSN [K19D]	-0.643 ± 0.079
GRPPQPKSVEDLLDRINLREHMPTFLFNGYEDLDTFKLLEEEDLDELNIRDPEHRAVLLTAVELLQEYDSN [K19R]	-0.032 ± 0.035
GRPPQPKSVEDLLDRIFLKEHMPTFLFNGYEDLDTFKLLEEEDLDELNIRDPEHRAVLLTAVELLQEYDSN [N17F]	-0.726 ± 0.085
GRPPQPKSVEDLLDRIILKEHMPTFLFNGYEDLDTFKLLEEEDLDELNIRDPEHRAVLLTAVELLQEYDSN [N17I]	-0.851 ± 0.086
GRPPQPKSVEDLLDRIPLKEHMPTFLFNGYEDLDTFKLLEEEDLDELNIRDPEHRAVLLTAVELLQEYDSN [N17P]	-1.08 ± 0.094
GRPPQPKSVEDLLDRIHLKEHMPTFLFNGYEDLDTFKLLEEEDLDELNIRDPEHRAVLLTAVELLQEYDSN [N17H]	-0.2 ± 0.049
GRPPQPKSVEDLLDRIYLKEHMPTFLFNGYEDLDTFKLLEEEDLDELNIRDPEHRAVLLTAVELLQEYDSN [N17Y]	-0.904 ± 0.086
GRPPQPKSVEDLLDRITLKEHMPTFLFNGYEDLDTFKLLEEEDLDELNIRDPEHRAVLLTAVELLQEYDSN [N17T]	-0.842 ± 0.064
GRPPQPKSVEDLLDRIQLKEHMPTFLFNGYEDLDTFKLLEEEDLDELNIRDPEHRAVLLTAVELLQEYDSN [N17Q]	-0.289 ± 0.053
GRPPQPKSVEDLLDRILLKEHMPTFLFNGYEDLDTFKLLEEEDLDELNIRDPEHRAVLLTAVELLQEYDSN [N17L]	-0.891 ± 0.059
GRPPQPKSVEDLLDRIVLKEHMPTFLFNGYEDLDTFKLLEEEDLDELNIRDPEHRAVLLTAVELLQEYDSN [N17V]	-0.817 ± 0.062
GRPPQPKSVEDLLDRIKLKEHMPTFLFNGYEDLDTFKLLEEEDLDELNIRDPEHRAVLLTAVELLQEYDSN [N17K]	-0.341 ± 0.051
GRPPQPKSVEDLLDRIALKEHMPTFLFNGYEDLDTFKLLEEEDLDELNIRDPEHRAVLLTAVELLQEYDSN [N17A]	-0.349 ± 0.046
GRPPQPKSVEDLLDRIELKEHMPTFLFNGYEDLDTFKLLEEEDLDELNIRDPEHRAVLLTAVELLQEYDSN [N17E]	-0.333 ± 0.063
GRPPQPKSVEDLLDRIDLKEHMPTFLFNGYEDLDTFKLLEEEDLDELNIRDPEHRAVLLTAVELLQEYDSN [N17D]	-0.234 ± 0.057
GRPPQPKSVEDLLDRICLKEHMPTFLFNGYEDLDTFKLLEEEDLDELNIRDPEHRAVLLTAVELLQEYDSN [N17C]	-0.486 ± 0.068
GRPPQPKSVEDLLDRISLKEHMPTFLFNGYEDLDTFKLLEEEDLDELNIRDPEHRAVLLTAVELLQEYDSN [N17S]	-0.279 ± 0.04
GRPPQPKSVEDLLDRIRLKEHMPTFLFNGYEDLDTFKLLEEEDLDELNIRDPEHRAVLLTAVELLQEYDSN [N17R]	-0.645 ± 0.051
GRPPQPKSVEDLLDRIWLKEHMPTFLFNGYEDLDTFKLLEEEDLDELNIRDPEHRAVLLTAVELLQEYDSN [N17W]	-0.956 ± 0.096
